According to article PMC3386781:
Substitutions are numbered along the chain they refer to. Names may count otherwise.

B1: AtHTMT1 (AtHOL1; halide/thiocyanate methyltransferase, HTMT) (Arabidopsis thaliana) (protein)
chain: MAEEQQNSDQSNGGNVIPTPEEVATFLHKTVEEGGWEKCWEEEITPWDQGRATPLIVHLVDTSSLPLGRALVPGCGGGHDVVAMASPERFVVGLDISESALAKANETYGSSPKAEYFSFVKEDVFTWRPTELFDLIFDYVFFCAIEPEMRPAWAKSMYELLKPDGELITLMYPITDHVGGPPYKVDVSTFEEVLVPIGFKAVSVEENPHAIPTRKGKEKLGRWKKIN
B2: AtHTMT1 (AtHOL1; halide/thiocyanate methyltransferase, HTMT) (Arabidopsis thaliana; V23C) (protein)
chain: B1 chain with V23C
B3: AtHTMT1 (AtHOL1; halide/thiocyanate methyltransferase, HTMT) (Arabidopsis thaliana; Y172F) (protein)
chain: B1 chain with Y172F

These proteins were tested on Br (assay: purified protein). Settings: co-substrate SAM; tag removed.

Row | Protein | Km | Vmax
1 | B1 | 24.87 ± 2.785 mM | 0.0114 µmol/min/mg
2 | B2 | 21.06 ± 1.883 mM | 0.0124 µmol/min/mg
3 | B3 | 30.16 ± 2.942 mM | 0.0114 µmol/min/mg

The proteins below were run on N#CS (assay: purified protein). Settings: co-substrate SAM; tag removed.

Row | Protein | Km | Vmax
4 | B1 | 0.099 ± 0.020 mM | 0.0436 µmol/min/mg
5 | B2 | 0.103 ± 0.009 mM | 0.0434 µmol/min/mg
6 | B3 | 0.141 ± 0.009 mM | 0.046 µmol/min/mg
